± gives the standard deviation.

This data set can be described thus: protein stability index of a GFP-peptide fusion (GPS, HEK-293T) (PSI 1-6); higher = more stable. The conditions noted are these: c terminus: a fixed tail appended.
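Note: 24-mer peptide tiles fused after GFP, lentivirally expressed, FACS-sorted into six equal bins by GFP/DsRed ratio, decoded by Illumina sequencing, PSI is the read-weighted mean bin number.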

MEEFRRSYSRLCRESGAEPQEAVL [LRRC45]: the protein stability index amounted to 3.77 ± 0.22 (treatment: DMSO) and 3.84 ± 0.27 (treatment: MLN4924 1 uM, 8 h). Taken in the same sequence, the figures for MENVPKENKVVEKAPVQNEAPALG [BEX5] were 5.33 ± 0.19 and 5.46 ± 0.16. In turn, MERTGGIGDSRPPSFHPHAGGGSQ [DVL3] registered a protein stability index (treatment: DMSO) of 4.5 ± 0.18 and a protein stability index (treatment: MLN4924 1 uM, 8 h) of 4.69 ± 0.16.

Take MGFVPHNGSLYGQASSERLGLDNR [ADAMTSL2]: the protein stability index reads like this: (treatment: DMSO) 3.59 ± 0.38; (treatment: MLN4924 1 uM, 8 h) 3.66 ± 0.35. Taken in the same sequence, the figures for MGPDEYEEMEEEEEEEEEEDEDDD [FBXO3] were 5.42 ± 0.22 and 5.47 ± 0.14. Taken in the same sequence, the figures for MGVVSLVFLIIYYLDPSVLSGVSC [ARL6IP1] were 3.18 ± 0.51 and 3.13 ± 0.33.

As to MITLSEAYIQIWKRRDNDETNQQG [USP39], the protein stability index stood at 3.15 ± 0.31 (treatment: DMSO) and 3.31 ± 0.38 (treatment: MLN4924 1 uM, 8 h). The corresponding values for MKQLQQQQHSDKTSLQGLTGTPLV [ISL2] are 4.01 ± 0.35 and 4.2 ± 0.23. The corresponding values for MMEKILGPIPSHMIHRTRKQKYFY [CLK3] are 2.27 ± 0.84 and 2.12 ± 0.3.

For the sequence MMHGRSYSLASGAGGGGSKGNSLK [RAB40C], the protein stability index came to 4.32 ± 0.061 (treatment: DMSO) and 4.51 ± 0.15 (treatment: MLN4924 1 uM, 8 h).

The sequence MNKSENLLFAGSSLASQVHAAAVN [INVS] came in with a protein stability index (treatment: DMSO) of 3.11 ± 0.24 and a protein stability index (treatment: MLN4924 1 uM, 8 h) of 3.35 ± 0.34.

Sequence MPLEQRSQHCKPEEGLEARGEALG [MAGEA3] registered a protein stability index (treatment: DMSO) of 5.34 ± 0.34 and a protein stability index (treatment: MLN4924 1 uM, 8 h) of 5.39 ± 0.14. In the case of MQNSNECKRNFVAVYDGSSSVEDL [NETO1], the protein stability index came to 4.59 ± 0.066 (treatment: DMSO) and 4.68 ± 0.22 (treatment: MLN4924 1 uM, 8 h).

Regarding MREQYEAMAERNRRDAEEWFHAKS [KRT13], the protein stability index was determined as 4.81 ± 0.28 (treatment: DMSO) and 4.75 ± 0.17 (treatment: MLN4924 1 uM, 8 h). MSLRNRLSKSRENPEEDEDQRNPA [SOAT1]: the protein stability index is, setting by setting: (treatment: DMSO) 5.58 ± 0.14; (treatment: MLN4924 1 uM, 8 h) 5.45 ± 0.14. MSQRNLNAKTEQGPTGVTMTSNPI [CDK11A] came in with a protein stability index (treatment: DMSO) of 4.53 ± 0.23 and a protein stability index (treatment: MLN4924 1 uM, 8 h) of 4.64 ± 0.17.

With MTSTGQDSTTTRQRRSRQNPQSPP [HDAC6], the protein stability index reads like this: (treatment: DMSO) 5.46 ± 0.14; (treatment: MLN4924 1 uM, 8 h) 5.4 ± 0.12.

In the case of MTTTFLQTSSSTFGGGSTRGGSLL [KRT15], the protein stability index by setting is: (treatment: DMSO) 2.8 ± 0.35; (treatment: MLN4924 1 uM, 8 h) 2.97 ± 0.46. For the sequence MVGGLKRKHSDLEEEEERWEWSPA [SERTAD3], the protein stability index is, setting by setting: (treatment: DMSO) 4.23 ± 0.4; (treatment: MLN4924 1 uM, 8 h) 4.56 ± 0.16. In the case of MVTQILGAMESQVGGGPAGPALPN [ELAVL3], the protein stability index is 2.69 ± 0.098 (treatment: DMSO) and 3.01 ± 0.53 (treatment: MLN4924 1 uM, 8 h). Taken in the same sequence, the figures for NAAHLGDKRRDLAHLAAEVEGKCL [TRIM39] were 4.46 ± 0.22 and 4.5 ± 0.16. Consider NCIHRDIKPENILITKQGIIKICD [CDKL4], for which the protein stability index (treatment: DMSO) stood at 2.51 ± 0.39 and the protein stability index (treatment: MLN4924 1 uM, 8 h) is 3.28 ± 0.24. Taken in the same sequence, the figures for NDPSVNSQAQETTIIASNAEEAEI [TOR1AIP2] were 5.5 ± 0.13 and 5.59 ± 0.34. NEHSAHCPHTPEFSVTGGTEEKSS [RPAIN]: the protein stability index runs as follows: (treatment: DMSO) 5.44 ± 0.24; (treatment: MLN4924 1 uM, 8 h) 5.28 ± 0.15. Taken in the same sequence, the figures for NETVNSIFAQGAPRSSLAESFFVD [ADAMTSL2] were 3.77 ± 0.086 and 3.86 ± 0.073. Taken in the same sequence, the figures for NFDNPWNFQNIPKETELPFPKQIL [MIA2] were 2.74 ± 0.27 and 2.9 ± 0.4. Regarding NFVYNSPRGYFHTFAGDTCQVALN [WASL], the protein stability index reads like this: (treatment: DMSO) 2.24 ± 0.44; (treatment: MLN4924 1 uM, 8 h) 2.27 ± 0.64. NGSISSAGNSSRNSSQSSSDGSCK [BTBD10] gave a protein stability index (treatment: DMSO) of 5.01 ± 0.23 and a protein stability index (treatment: MLN4924 1 uM, 8 h) of 5.2 ± 0.16. On to NGSYLELSSDRVANSSSEAPFPNV [ADAMTSL2], for which the protein stability index runs as follows: (treatment: DMSO) 4.52 ± 0.18; (treatment: MLN4924 1 uM, 8 h) 4.28 ± 0.15. The corresponding values for NHGLVSVGESVEEAFYYIHNLVVA [ADD1] are 2.24 ± 0.31 and 2.1 ± 0.58. The corresponding values for NINDRIKELGTLIPKSSDPEMRWN [TFE3] are 3.58 ± 0.33 and 3.77 ± 0.17. Take NIYVHDLLTFQQITTVSKAKGASL [VPS39]: the protein stability index (treatment: DMSO) is 2.32 ± 0.3 and the protein stability index (treatment: MLN4924 1 uM, 8 h) was determined as 2.27 ± 0.34. Regarding NKPTMSFKDYIQERSDPVEQGKPV [ETS2], the protein stability index stood at 4.75 ± 0.23 (treatment: DMSO) and 4.83 ± 0.26 (treatment: MLN4924 1 uM, 8 h).

For NKSVTLYTVKDKATGEVLGQFYLD [NLN], under “treatment: DMSO”, the protein stability index worked out at 2.13 ± 0.3. NKWTVQYNVSPLSWNVAVKFLMAR [PTPN9]: the protein stability index was 2.47 ± 0.54 (treatment: DMSO) and 2.15 ± 0.38 (treatment: MLN4924 1 uM, 8 h). The corresponding values for NLLESKADGIEVSYNACGVLSHIM [ZER1] are 2.25 ± 0.08 and 2.31 ± 0.28. With NLQCLYCEKTFRDKNTLKDHMRKK [ZNF277], the protein stability index is 3.29 ± 0.42 (treatment: DMSO) and 3.39 ± 0.66 (treatment: MLN4924 1 uM, 8 h). The corresponding values for NNLAASQLKLDHYRAALRSCSLVL [FKBP8] are 2.62 ± 0.11 and 2.35 ± 0.27. Turning to NNWDKWMAKKHKKIRLRCQKGIPP [TBC1D10A], the protein stability index by setting is: (treatment: DMSO) 2.74 ± 0.24; (treatment: MLN4924 1 uM, 8 h) 3.1 ± 0.12. The corresponding values for NQLILTASADRTVIVWDGDTTRQV [WDR41] are 2.79 ± 0.2 and 3.12 ± 0.2. The corresponding values for NQPTRFGKLLLRLPSLRTVSSSVI [NR2F2] are 2.44 ± 0.24 and 2.5 ± 0.2. Take NRDSSMKLSFRARAYGFRGPGPQL [CHGA]: the protein stability index amounted to 2.44 ± 0.28 (treatment: DMSO) and 2.47 ± 0.42 (treatment: MLN4924 1 uM, 8 h).

As to NRGLILYRLGYFDDALEDFKKVLD [TTC32], the protein stability index by setting is: (treatment: DMSO) 2.05 ± 0.59; (treatment: MLN4924 1 uM, 8 h) 2.24 ± 0.14. Taken in the same sequence, the figures for NRLASLQQENKVLKIELETYKLKC [CCDC6] were 2.89 ± 0.28 and 3.23 ± 0.21. The corresponding values for NRLMLAVRDMMANFHLNDLEAPHE [TCF25] are 2.5 ± 0.42 and 2.42 ± 0.24. As for NRQTFVNSAIRFLRKYSFDGLDLD [CHIT1], the protein stability index turned out to be 1.99 ± 0.27 (treatment: DMSO) and 2.48 ± 0.22 (treatment: MLN4924 1 uM, 8 h). Regarding NSLWKKNKTICKERLQILCFFLLI [NLN], the protein stability index (treatment: DMSO) was found to be 2.9 ± 0.4 and the protein stability index (treatment: MLN4924 1 uM, 8 h) is 2.4 ± 0.42. The corresponding values for NTDVSMENMVTVGFFSCMGTLCIG [KCNK9] are 2.81 ± 0.52 and 2.8 ± 0.61. As to NTPFQLSIAPPEAEGVVLSDSPDA [PPTC7], the protein stability index is, setting by setting: (treatment: DMSO) 5.41 ± 0.15; (treatment: MLN4924 1 uM, 8 h) 5.37 ± 0.18.

NTTEELEALITDPDEMRMQALLIR [FEM1A] gave a protein stability index (treatment: DMSO) of 3.93 ± 0.29 and a protein stability index (treatment: MLN4924 1 uM, 8 h) of 3.86 ± 0.27. Regarding NVEDEAETKKVLGLQDTITAELVV [PALM], the protein stability index runs as follows: (treatment: DMSO) 4.3 ± 0.28; (treatment: MLN4924 1 uM, 8 h) 4.25 ± 0.18. Taken in the same sequence, the figures for NVQILLPVGEPVTNVRLQPAATWN [FCHO1] were 2.32 ± 0.22 and 2.44 ± 0.19. Taken in the same sequence, the figures for NYLFMGDYVDRGYYSVETVTLLVA [PPP2CA] were 2.71 ± 0.6 and 2.82 ± 0.56.

As to NYQVFQKVTDHATTALLHYQLPQM [MED27], the protein stability index was 2.52 ± 0.21 (treatment: DMSO) and 2.25 ± 0.24 (treatment: MLN4924 1 uM, 8 h). Taken in the same sequence, the figures for PAGAGPSPTFPALGIGMDSCVIPL [SEPHS2] were 3.14 ± 0.43 and 3.26 ± 0.34. Taken in the same sequence, the figures for PAGKTPVPAGEEEGELGEYRQKLL [VPS39] were 5.29 ± 0.32 and 5.45 ± 0.2.

For PALDSLAYEYEREGLYEQAFQLLR [TRADD], the protein stability index reads like this: (treatment: DMSO) 2.64 ± 0.15; (treatment: MLN4924 1 uM, 8 h) 2.9 ± 0.29. Consider PANLYVRELREVRRVPPRFSIPPT [PTPRD], for which the protein stability index was determined as 2.95 ± 0.2 (treatment: DMSO) and 3.05 ± 0.41 (treatment: MLN4924 1 uM, 8 h). PAPAFQPFFFTGAFPFNMQELVLK [ANKRD40] gave a protein stability index (treatment: DMSO) of 2.07 ± 0.82 and a protein stability index (treatment: MLN4924 1 uM, 8 h) of 2.77 ± 1.2. Taken in the same sequence, the figures for PAPSPAKEERKTEVVMNSQQTPVG [PALM] were 5.52 ± 0.19 and 5.46 ± 0.13. Consider PASPERDYSPYYKTIEELRDKILT [KRT13], for which the protein stability index by setting is: (treatment: DMSO) 3.349 ± 0.006; (treatment: MLN4924 1 uM, 8 h) 3.45 ± 0.31. Taken in the same sequence, the figures for PATTVTSPNSTPAKTIDTSPPVDL [SNAP91] were 5.25 ± 0.23 and 5.25 ± 0.19.

With PCLCLSWEEAQSPANCPACREPSP [TRIM43], the protein stability index is, setting by setting: (treatment: DMSO) 4.74 ± 0.24; (treatment: MLN4924 1 uM, 8 h) 4.79 ± 0.15. The corresponding values for PCSKAVMSQALKATFSGFKKEQRR [ETS2] are 3.15 ± 0.21 and 3.27 ± 0.28.

In turn, PDPGPSPEASHLRFRRFRFQEAAG [ZNF263] registered a protein stability index (treatment: DMSO) of 3.16 ± 0.13 and a protein stability index (treatment: MLN4924 1 uM, 8 h) of 3.23 ± 0.31.

In the case of PEASDQEEHLSPLDFLHSANFSLG [RNF180], the protein stability index came to 4.66 ± 0.17 (treatment: DMSO) and 4.64 ± 0.36 (treatment: MLN4924 1 uM, 8 h).

Take PEGSVSGSQPNSGLALESSSGLQD [NFE2L1]: the protein stability index runs as follows: (treatment: DMSO) 5.46 ± 0.2; (treatment: MLN4924 1 uM, 8 h) 5.51 ± 0.13. PEKIGTRFLLYTNENPNNFQILLL [PNLIPRP1] yielded a protein stability index (treatment: DMSO) of 2.26 ± 0.46 and a protein stability index (treatment: MLN4924 1 uM, 8 h) of 2.48 ± 0.46.

PELLVGDTQYGSSVDIWAIGCVFA [CDKL4] returned a protein stability index (treatment: DMSO) of 2.14 ± 0.57 and a protein stability index (treatment: MLN4924 1 uM, 8 h) of 2.73 ± 0.98. The corresponding values for PETVRMVLSNMEKLFCIPVHGIRS [IMPA1] are 2.65 ± 0.27 and 2.94 ± 0.3. Taken in the same sequence, the figures for PFKAYLDVDITLSSEAFHNYMNAA [RTN3] were 2.92 ± 0.44 and 2.71 ± 0.72.

Regarding PGPSWVRGSGPSVLSRLQDAAVVR [ALKBH7], the protein stability index was 3.58 ± 0.37 (treatment: DMSO) and 3.78 ± 0.23 (treatment: MLN4924 1 uM, 8 h). As to PGSSSGPVLGSSSGAGHGSGSGSG [SPAG8], the protein stability index worked out at 4.87 ± 0.29 (treatment: DMSO) and 5.14 ± 0.18 (treatment: MLN4924 1 uM, 8 h).
